From the supplement of paper PMC9170038

Test system: K4 kissing-loop RNA reporter
Assay: apparent KD of K4 kissing-loop reporter; higher = weaker reporter binding
Settings: Eterna round: R107
Procedure: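 RNA-MaP round R107: designed RNA switches with theophylline, tryptophan, arginine or FMN aptamers are transcribed on-chip within common flanks. They are titrated with a labelled K4 kissing-loop RNA reporter in RNA-MaP buffer (100 mM Tris pH 7.5, 80 mM KCl, 4 mM MgCl2), without ligand or with the indicated ligand. Median apparent KD per design.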

[1] = input ligand: theophylline 20 uM
[2] = input ligand: tryptophan 2.4 mM
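Further: bound reporter read as fluorescence of individual clusters on recovered sequencing chips by microscopy, with normalized cluster intensities fitted with a binding model.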

Sequence	apparent KD of K4 kissing-loop reporter (input ligand: FMN 200 uM)	apparent KD of K4 kissing-loop reporter (input ligand: arginine 13.2 mM)	apparent KD of K4 kissing-loop reporter (input ligand: none)	apparent KD of K4 kissing-loop reporter [1]	apparent KD of K4 kissing-loop reporter [2]
GUAGGAUGAGGAGGAGGAUGAAAUACUGAAGGAGCGCAGAGAAAUGCAGGUAGGUCGCGGUAAGGAAGUAUAGUGAUGUUAUAUA [#07 K4 Arginine A Same State]	414 nM	367 nM	664 nM	755 nM	449 nM
GUAGGAUGAGGAGGAGGAUGAAUUACUGAAGGAGCGCAAAGAAAUGCAGGUAGGUCGCGGUAAAGAAGUAUAGUGAUGUUAUAUA [SSArgA.E]	400 nM	301 nM	413 nM	426 nM	310 nM
GUAUAUCGAACUGAUACCAGAGAAUAAAGCAGUGAUGUUGCAUAUAUAAAUAAGACUCGACUCCCUUGGCAGCGGGAAGAUAUAC [On purpose 1]	170 nM	231 nM	197 nM	280 nM	146 nM
GUAUCGCUAGGAGGAUAUUCCAUUUUACAUAGAAAUGGCUAUGCGAAGUGAUGUUUCGAUUUACGGGAAGAAGGCCUAGUGAUAC [FMN B 22]	160 nM	148 nM	148 nM	177 nM	155 nM
GUAUCGCUAGGAGGAUAUUUCAAUUUGACUCUUUGAGUUAAUACGGAGUGAUGUUCCGUUUUACGGAAAGAAGGCCUAGUGAUAC [FMN B 14]	115 nM	150 nM	192 nM	172 nM	166 nM
GUAUGUGGAAACACGUACUUAUAUCCUCGACAGGAUAUGCGGAAACGCAGAAGGGUCGCCAACGAGUUUAUCCAGUGAUGUUGGA [Ex FMN A 15]	347 nM	296 nM	362 nM	335 nM	350 nM
GUAUGUGGAAACACGUACUUGUAUCCUAGGAAGGAUAUGCGGAAACGCAGAAGGUCCACCGGCGAGUUUAUCCAGUGAUGUUGGA [Ex FMN A 10]	260 nM	275 nM	274 nM	318 nM	248 nM
GUCCACACUGCAGGAUAUGGAGAAAUAGCGAGGGAGCUUGGAAGCACGCCUCUGGCAGUGAUGUUGCCAGAAGGGCGGUGCGGCG [Dilazasole]	106 nM	76.9 nM	75.2 nM	76.9 nM	80.8 nM
GUCUUACUAUAGGAUACCAGCAUGCAAGGAGUGAUGUUCCCGUCAUAUGAGGAGUACCGCUGCCCUUGGCAGCCUCUUGUAAGUU [theeternabot_sameState_KL_Theo_B_1]	502 nM	253 nM	353 nM	411 nM	316 nM
GUGCAAAGCACCGGCACGAGCAGCUUAAAGGAGGAUAUGACGAAAGUCAGAAGGUUUAGUGAUGUUAGGCCUUGCUUGAGUCGAA [#01 K4 FMN A Exclusion]	326 nM	265 nM	282 nM	413 nM	270 nM
GUGCGGCUAGUGAUGUUGGUUGCGUGGGAAGGAGCGCAGAAACAUGCAGGUAGGUCGCCCACACCUCUGAAAGGAGGCUAAUUCA [Bisobi]	277 nM	128 nM	163 nM	213 nM	134 nM
GUGGCACGAAAGUGCCACGCAUCCUCUGGCUAGGAUAUCUGGAAACAGAGAAGGAGCUCAUGAGUGAUGUUCAUCUAGAGGAUGC	827 nM	537 nM	1010 nM	978 nM	947 nM
GUGGCGGGCCAAGGAUAUAUUUUGGAGUGAUGUUGUUCAUUUAUUUGAGCUAGUGAUGUUGGUCGAAUAGAAGGUGGCCCGCCAC [whbob_Ex_FMNB__2th220]	69.9 nM	27.2 nM	52.8 nM	44.7 nM	45.8 nM
GUGUCCUAGUCGGCCGCCACUGGGUGCAAAAUAGAAGGAGCAUUGCACAUCAGUGAUGUUGAUGUCAGGACCGGGACUAGGGUGU [KL-SSTryp-B5 Brourdwalk1]	652 nM	406 nM	597 nM	563 nM	439 nM
GUUACGCAUGGAAGGAGCGCGAAUUUAAUUAGUGAGUGAUGUUCACAUAAAAUAUAUAAUACGCAGGUAGGUCGCCAUGUGUAAC [Ex Arginine B K4 1]	80.8 nM	83.1 nM	79.3 nM	82.8 nM	75 nM
GUUAUUCUAAACGCAGUAGUGAUGUUGAUGCGAGGACCGGUACGGCCGCCACUCGACUGCCGUCACGCCCGUCCAACAGCCGGAG [theeternabot_exclusion_KL_Trp_A_20]	431 nM	142 nM	478 nM	254 nM	268 nM
UAAAAUAAAUAAUAGAGAUAAUUACUCGAAGGAGCGACGAAUUCGUCAGGUAGGUCGCGAGUGAUGUUCGCAAAUAUUAUCUCAU [AK3 Exc Arginine A]	212 nM	328 nM	295 nM	345 nM	261 nM
UAAAUCACACGAGAUACCAGCCAAACCGAACUUGAGCACUAUAGUGAUGUUAUAUUGCGAGGCCCUUGGCAGCUCAAUAGAACAA [theeternabot_sameState_KL_Theo_B_11]	213 nM	174 nM	190 nM	145 nM	182 nM
UAACGCUGACAGCAACAAUUCGGGCCUGAUACCAGCAAUUUUUCAUGCCCUUGGCAGCAGAGUGAUGUUUUCUGUCUAUUUAGUC [theeternabot_exclusion_KL_Theo_A_23]	628 nM	723 nM	864 nM	700 nM	520 nM
UAACUCUUGCAGUGAUGUUGCAAGUAUGCUCAGGAUAUCAGGAAACUGAGAAGGGAGUUUCCUGAGCUUCUGCAAGAGCUCAGAA [KL-SSFMN-A6]	618 nM	408 nM	547 nM	375 nM	382 nM
UAAGAAUAAGAUGCAGUGAUGUUGCAUCUACGAGGACCGGUACGGCCGCCACUCGAGGUCCUCGAACUGCAUCAGAGGACAAUAA [(H,1)-(H,2)-(Trp1)-(Trp2)-(T)'-(H)'-(T)'']	253 nM	184 nM	286 nM	390 nM	300 nM
UAAGAAUAAGUAGCAGUGAUGUUGCUACUACGAGGACCGGUACGGCCGCCACUCGAGCCGUACCAUAACAUCACUGAGGUACGAA [(H1)-(H2)-(Trp1)-(Trp2)-(T)'-(H)'-(T)'']	231 nM	175 nM	264 nM	292 nM	272 nM

Sequence	apparent KD of K4 kissing-loop reporter (input ligand: FMN 200 uM)	apparent KD of K4 kissing-loop reporter (input ligand: arginine 13.2 mM)	apparent KD of K4 kissing-loop reporter (input ligand: none)	apparent KD of K4 kissing-loop reporter [1]	apparent KD of K4 kissing-loop reporter [2]
UAAGAAUAGCAUGCAGUGAUGUUGCAUGUCCGAGGACCGGUACGGCCGCCACUCGAGUCCUCGAACAUGCACCGAGGAAUAACAA [#19 K4 Tryptophan A Same State]	108 nM	79.6 nM	109 nM	107 nM	124 nM
UAAUAAAUUCCAGCGAUAUCGCUCUUCGAAGGAGCGGACGAAAGUCCAGGUAGGUCGCGGAGAGUGAUGUUCUUUGCGGCGCUGG [whbob_Ex_Arginine_A_2t133]	450 nM	177 nM	356 nM	298 nM	266 nM
UAAUCACUCGAACUUGCAACUCGAGUGGAACGAGGACCGGUACGGCCGCCACUCGAUAACUUGCAGUGAUGUUGCAAGUAAGAAU [(T)''-(K)'-(T)'-(T1)-(T2)-(K1)-(K2)_Design8]	333 nM	341 nM	411 nM	411 nM	219 nM
UAAUGUGGCACAGGAUAUACUGAUUGGAGUGAUGUUCCAAACAUGAACAAGAGACUUUUACAAGAAGUAGAAGGGUGUUAGAUAU [Exclusion FMN B GF 19]	269 nM	265 nM	223 nM	295 nM	223 nM
UACAAACGUAGUGAUGUUACGUACUCUGAUACCAGACAACUCUAAGUCCCUUGGCAGCAGUCACUUAGCUUAUUAUUUUCUCAAA [JR_Nu_ExcTheophyA_Sub026]	106 nM	134 nM	116 nM	130 nM	103 nM
UACAGGGAUAGUGAUGUUAUCCCAUGUGAUACCAGUGCCAUCCAACACCCUUGGCAGCAUACGGGCAGUGAUGUUGUUCUUGGUA [#16 K4 Theophylline A Exclusion]	89.8 nM	79.8 nM	86 nM	86.1 nM	80.1 nM
UACAUAUUAUUUAACAUAAAUUUUACAGAAGGAGCGUGAUCAUUCACAGGUAGGUCGCUGAACUAGUGAUGUUAGUUUUAUUUUU [JR_Nu_ExcArginiA_Sub025]	62.7 nM	96.1 nM	71.5 nM	97 nM	57.3 nM
UACUAUAGUGAUGUUAUAGAUAAACCAGAUACCAGUGUAACAUAACACCCUUGGCAGCUGAUGAGGGAACAUAUGAAUGCAUAUG [AstrosSSTHe-A#5newdesignED5.11]	196 nM	166 nM	179 nM	178 nM	163 nM
UACUAUAGUGAUGUUAUAGAUAAACCAGAUACCAGUGUAACAUAACACCCUUGGCAGCUGAUGAGGGAACUAUUGAAAACAAUAG [AstroSTH-A#7newdesignED4.86]	248 nM	203 nM	267 nM	223 nM	217 nM
UACUAUAGUGAUGUUAUAGAUAAACCAGAUACCAGUGUAACAUAACACCCUUGGCAGCUGAUGAGGGAAGAUAUCAAAAGAUAUC [AstroSTH-A#9newdesignED4.70]	218 nM	218 nM	202 nM	247 nM	199 nM
UAGUCCUAGUGAUCGUUAUCACGUGGUGGGCGAGGACCGGUACGGCCGCCACUCGACUAUGCAGUGAUGUUGCAAUCCGGACAAU [Exclusion - Tryptophan A (Freestyle 15)]	294 nM	436 nM	477 nM	325 nM	145 nM
UAGUGUCGCGCAGGAUAUACUGAUUGGAGUGAUGUUCCAAACAUGCACGUGUGACUUUUACAAGAAGUAGAAGGGCGUGAGACAU [Exclusion FMN B GF 22]	303 nM	200 nM	184 nM	198 nM	179 nM
UAUAUAGUGACGGCCGCCACUAUUGUGAUGUUAUUGUUAGAGUGAUGUUUUGUUGUUUAAUUUUGUAGGACCGGGUUAUAUGUUA [xxzsmullin]	846 nM	451 nM	568 nM	530 nM	543 nM
UAUCUAUGCUCGGCCGCCACUAGGACCGGGAUCUCUCUAGUGAUGUUAGUCUGAUCGGCCGCCACUAGGACCGGGAGUGUAGAUA [KL-SSTryp-B15 #DoubleAptamer]	101 nM	88.7 nM	91.2 nM	104 nM	80.3 nM
UAUCUAUGCUCGGCCGCCACUAGGACCGGGUAGUCUCUAGUGAUGUUAGUCUCUACGGCCGCCACUAGGACCGGGAGUGUAGAUA [KL-SSTryp-B16 #DoubleAptamer]	286 nM	235 nM	224 nM	225 nM	82.5 nM
UAUGAAGGUGGAGGAUAUUGAUUGAAUCUUGGUCUGGAGUGAUGUUCCGGGAAGCCUUGGAUUCAUCGAGAAGGCCAAGGAUAGU [Extra 1]	123 nM	269 nM	307 nM	263 nM	198 nM
UAUUAAUUGUCAGGAUAUCGUAAUCGAGUGAUGUUCGAAUAUCGACGAUAGUCGAUAUUAUUUAUACGAGAAGGGACAUUAUUUA [JR_SSFMNB_Sub004]	366 nM	298 nM	417 nM	321 nM	332 nM
UCACCGCCUAGUGAUGUUACGCGACUCAGAAAGGAUAUAAUCAAUCUUAGAAGGUUCACACCGUAUGGAUAUUAUCUAUCUCGUU [theeternabot_exclusion_KL_FMN_A_39]	456 nM	284 nM	427 nM	437 nM	398 nM
UCCUAGGCUCGAAAGAGCCUAGGAUAUACUCAGGAUAUCCGGAAACGGAGAAGGGAGUAACUAGUGAUGUUAGGGAUUCCCUAUU	260 nM	96 nM	109 nM	98.7 nM	96.5 nM
UCCUCGAAUCGACCUCGAAAGAGGAUGGAUACCAGAGAAGAAAUUCUCCCUUGGCAGCCAGUGAUGUUGGAACGAGGUAAAUAAA [#SwitchBubble 20 #K4Late]	508 nM	412 nM	517 nM	327 nM	424 nM
UCCUGCAAUCAACCACGAAAGUGGUUCGAUACCAGAGUCGAAAGACUCCCUUGGCAGCGAGUGAUGUUCGAGCAGGUAAAAUAAA	862 nM	642 nM	754 nM	646 nM	602 nM
